Data as given in patent US20170007714A1 (ONCOMATRYX BIOPHARMA S L, published 2017).

How the values were obtained:
BSA = target: T1, BSA (UniProt P02769 25-607); experiment: ELISA, coated BSA as negative control
T1 construct: also called coated BSA; negative control (BSA)

[1] = target: T2, recombinant mouse ENG (aa 27-581) (mouse, UniProt Q63961 27-581); experiment: ELISA on recombinant mouse ENG, detection with HRP-conjugated anti-human IgG
T2 construct: also called rmENG; recombinant mouse Endoglin
T2 sequence: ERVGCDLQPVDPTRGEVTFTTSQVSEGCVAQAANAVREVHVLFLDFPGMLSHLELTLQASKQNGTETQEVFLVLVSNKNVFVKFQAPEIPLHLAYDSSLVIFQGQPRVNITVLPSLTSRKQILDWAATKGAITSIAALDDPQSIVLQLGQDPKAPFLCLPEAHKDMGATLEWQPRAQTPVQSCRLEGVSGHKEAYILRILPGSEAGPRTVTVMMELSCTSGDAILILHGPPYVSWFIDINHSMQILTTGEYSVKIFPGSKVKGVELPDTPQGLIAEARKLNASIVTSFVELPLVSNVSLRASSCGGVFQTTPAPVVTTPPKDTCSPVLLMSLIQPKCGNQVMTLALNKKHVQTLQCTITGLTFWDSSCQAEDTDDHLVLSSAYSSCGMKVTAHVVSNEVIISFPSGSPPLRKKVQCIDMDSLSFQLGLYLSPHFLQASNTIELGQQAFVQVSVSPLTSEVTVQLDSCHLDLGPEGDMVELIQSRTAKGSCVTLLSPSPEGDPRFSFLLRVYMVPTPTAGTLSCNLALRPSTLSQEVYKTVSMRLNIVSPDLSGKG

[2] = target: T3, mouse Endoglin on eEnd2 cells (mouse, UniProt Q63961 27-653); experiment: flow cytometry on ENG-expressing mouse eEnd2 cells
T3 construct: also called ENG expressing mouse eEnd2
T3 sequence: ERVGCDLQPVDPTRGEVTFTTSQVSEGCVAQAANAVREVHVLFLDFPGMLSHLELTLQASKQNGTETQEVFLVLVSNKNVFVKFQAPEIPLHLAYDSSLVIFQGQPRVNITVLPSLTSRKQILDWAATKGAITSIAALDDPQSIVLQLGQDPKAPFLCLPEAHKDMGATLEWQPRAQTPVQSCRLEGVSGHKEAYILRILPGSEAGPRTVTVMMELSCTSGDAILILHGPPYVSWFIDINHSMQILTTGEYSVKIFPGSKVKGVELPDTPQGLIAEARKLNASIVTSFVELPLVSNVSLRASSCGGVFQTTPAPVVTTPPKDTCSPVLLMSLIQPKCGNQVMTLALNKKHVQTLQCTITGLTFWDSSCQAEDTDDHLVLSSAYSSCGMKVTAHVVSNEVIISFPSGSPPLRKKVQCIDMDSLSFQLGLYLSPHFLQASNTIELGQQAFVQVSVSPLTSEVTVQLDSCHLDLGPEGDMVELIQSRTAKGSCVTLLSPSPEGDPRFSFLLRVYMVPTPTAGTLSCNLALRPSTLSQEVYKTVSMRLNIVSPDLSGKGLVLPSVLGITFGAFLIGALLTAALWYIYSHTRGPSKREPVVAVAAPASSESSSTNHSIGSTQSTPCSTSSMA
Protocol: (§1) Cell binding was analyzed by flow cytometry, using ENG-positive HT1080 and ENG expressing mouse eEnd2.

[3] = target: T4, recombinant human Endoglin (human, UniProt P17813 26-586); experiment: QCM (Attana A100) on rhENG; second of two constants (avidity contribution noted)
T4 construct: It states only that the extracellular domain is residues 26-561; also called rhENG; recombinant human ENG
T4 sequence: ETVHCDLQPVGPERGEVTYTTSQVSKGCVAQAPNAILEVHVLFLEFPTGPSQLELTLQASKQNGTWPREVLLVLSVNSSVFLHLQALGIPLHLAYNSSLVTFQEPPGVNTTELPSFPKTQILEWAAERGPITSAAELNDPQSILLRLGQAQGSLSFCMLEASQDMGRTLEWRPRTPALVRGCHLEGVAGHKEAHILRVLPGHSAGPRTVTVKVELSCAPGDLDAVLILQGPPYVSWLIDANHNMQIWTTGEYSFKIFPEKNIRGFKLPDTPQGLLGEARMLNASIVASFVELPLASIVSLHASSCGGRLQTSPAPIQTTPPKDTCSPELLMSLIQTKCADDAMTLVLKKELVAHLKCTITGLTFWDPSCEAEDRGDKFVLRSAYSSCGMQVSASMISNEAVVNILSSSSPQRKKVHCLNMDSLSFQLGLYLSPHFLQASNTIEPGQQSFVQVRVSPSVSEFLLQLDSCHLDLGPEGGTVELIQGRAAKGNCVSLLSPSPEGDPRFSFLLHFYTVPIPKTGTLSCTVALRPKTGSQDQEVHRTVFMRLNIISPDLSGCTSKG

[4] = target: T5, human Endoglin on HT1080 cells (human, UniProt P17813 26-658); experiment: flow cytometry on ENG-positive HT1080 cells
T5 construct: also called ENG-positive HT1080
T5 sequence: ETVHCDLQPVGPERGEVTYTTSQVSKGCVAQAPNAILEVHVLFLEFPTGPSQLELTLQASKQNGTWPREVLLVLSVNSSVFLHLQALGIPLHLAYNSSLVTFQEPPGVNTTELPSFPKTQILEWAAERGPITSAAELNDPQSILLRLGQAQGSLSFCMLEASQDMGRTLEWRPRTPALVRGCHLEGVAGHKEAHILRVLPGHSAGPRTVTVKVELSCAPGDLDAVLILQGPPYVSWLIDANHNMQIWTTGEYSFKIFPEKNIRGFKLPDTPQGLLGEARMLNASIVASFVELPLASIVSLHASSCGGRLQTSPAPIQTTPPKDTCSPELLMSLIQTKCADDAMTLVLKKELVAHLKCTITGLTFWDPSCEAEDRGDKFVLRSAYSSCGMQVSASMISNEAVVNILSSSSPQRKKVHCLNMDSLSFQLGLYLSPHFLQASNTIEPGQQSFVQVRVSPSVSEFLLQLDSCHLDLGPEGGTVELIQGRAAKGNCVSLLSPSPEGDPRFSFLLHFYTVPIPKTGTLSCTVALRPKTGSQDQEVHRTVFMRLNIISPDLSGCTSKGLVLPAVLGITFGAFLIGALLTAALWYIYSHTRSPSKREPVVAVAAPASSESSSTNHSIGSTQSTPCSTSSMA
Protocol: as §1

[5] = target: T4, recombinant human Endoglin; experiment: QCM (Attana A100) on rhENG; first of two constants

T1 sequence (P02769 25-607 limits assumed): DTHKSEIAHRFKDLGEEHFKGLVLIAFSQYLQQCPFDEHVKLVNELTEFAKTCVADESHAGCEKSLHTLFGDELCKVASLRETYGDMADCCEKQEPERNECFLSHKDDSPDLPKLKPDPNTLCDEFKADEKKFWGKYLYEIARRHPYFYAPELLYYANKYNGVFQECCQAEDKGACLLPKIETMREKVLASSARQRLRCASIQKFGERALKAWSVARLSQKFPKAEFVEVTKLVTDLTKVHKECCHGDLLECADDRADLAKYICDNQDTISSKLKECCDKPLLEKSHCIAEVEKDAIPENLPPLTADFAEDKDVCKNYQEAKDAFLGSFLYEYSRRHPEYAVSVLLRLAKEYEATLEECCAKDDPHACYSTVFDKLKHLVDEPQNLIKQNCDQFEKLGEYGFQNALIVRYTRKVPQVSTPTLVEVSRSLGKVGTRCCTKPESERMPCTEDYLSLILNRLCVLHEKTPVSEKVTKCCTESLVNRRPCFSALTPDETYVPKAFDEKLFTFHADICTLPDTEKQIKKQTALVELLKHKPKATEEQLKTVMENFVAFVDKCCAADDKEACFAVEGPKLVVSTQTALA

B1: anti-murine Endoglin mE12-IgG1 (antibody, V domains shown)
VH: EVQLVESGGGVVQPGRSLRLSCAASGFTFSSYGMHWVRQAPGKGLVWVSRINSDGSSTSYADSVKGRFTISRDNSKNTLYLQMNSLRAEDTAVYYCARATGTWVMSWGQGTLVTVSS
VL: SSELIQDPAVSVALGQTVRITCQGDSLRSYYASWYQQKPGQAPVLVIYGKNNRPSGIPDRFSGSSSGNTASLTITGAQAEDEADYYCNSRDSSGTVFGGGTKLTVLG
notes: Full-length human IgG1 (gamma1*/lambda, deficient for ADCC and CDC), made from the scFv mE12 and produced in CHO cells; also called anti-muENG mE12; OCMTX004p
Question: Does B1 bind (BSA)?
Answer: Result: no binding

Question: What about the EC50 [1] of the same binder?
Answer: The EC50 was 60 nM.

Question: What about the EC50 [2] of the same binder?
Answer: The EC50 was 89 nM.

B2: anti-human Endoglin A5-IgG1 (antibody, V domains shown)
VH: EVQLLESGGGLVQPGGSLRLSCAASGFTFSSYAMSWVRQAPGKGLEWVSAIYGSDGDTTYADSVKGRFTISRDNSKNTLYLQMNSLRAEDTAVYYCARVFYTAGFDYWGQGTLVTVSS
VL: DIELTQSPSSLSASVGDRVTITCRASQSISSSLNWYQQKPGKAPKLLIYAASSLQSGVPSRFSGSGSGTDFTLTISSLQPEDFATYYCQQAPAKPPTFGQGTKLEIKR
notes: Full-length human IgG1 (gamma1*/kappa, deficient for ADCC and CDC), made from the scFv A5 and produced in CHO cells; also called anti-huENG A5; A5 anti-huENG IgG1
Question: What does the source list for B2?
Answer: Kd [3]: 2.5 nM; EC50 [4]: 0.4 nM; Kd [5]: 260 nM
